Reference: patent US20160075733A1

Molecular target: low density lipoprotein receptor (LDLR) expressed on HEK293 cells transfected with LDLR modified mRNA (mRNA SEQ ID NO: 21463) (human) (UniProt P01130)
Assay: Flow cytometry (FACS): increasing amounts of BODIPY-LDL on HEK293 cells transfected with LDLR mRNA, 1.0 h at 37 C

low density lipoprotein receptor (LDLR) expressed on HEK293 cells transfected with LDLR modified mRNA (mRNA SEQ ID NO: 21463) (human), sequence (P01130 22-860): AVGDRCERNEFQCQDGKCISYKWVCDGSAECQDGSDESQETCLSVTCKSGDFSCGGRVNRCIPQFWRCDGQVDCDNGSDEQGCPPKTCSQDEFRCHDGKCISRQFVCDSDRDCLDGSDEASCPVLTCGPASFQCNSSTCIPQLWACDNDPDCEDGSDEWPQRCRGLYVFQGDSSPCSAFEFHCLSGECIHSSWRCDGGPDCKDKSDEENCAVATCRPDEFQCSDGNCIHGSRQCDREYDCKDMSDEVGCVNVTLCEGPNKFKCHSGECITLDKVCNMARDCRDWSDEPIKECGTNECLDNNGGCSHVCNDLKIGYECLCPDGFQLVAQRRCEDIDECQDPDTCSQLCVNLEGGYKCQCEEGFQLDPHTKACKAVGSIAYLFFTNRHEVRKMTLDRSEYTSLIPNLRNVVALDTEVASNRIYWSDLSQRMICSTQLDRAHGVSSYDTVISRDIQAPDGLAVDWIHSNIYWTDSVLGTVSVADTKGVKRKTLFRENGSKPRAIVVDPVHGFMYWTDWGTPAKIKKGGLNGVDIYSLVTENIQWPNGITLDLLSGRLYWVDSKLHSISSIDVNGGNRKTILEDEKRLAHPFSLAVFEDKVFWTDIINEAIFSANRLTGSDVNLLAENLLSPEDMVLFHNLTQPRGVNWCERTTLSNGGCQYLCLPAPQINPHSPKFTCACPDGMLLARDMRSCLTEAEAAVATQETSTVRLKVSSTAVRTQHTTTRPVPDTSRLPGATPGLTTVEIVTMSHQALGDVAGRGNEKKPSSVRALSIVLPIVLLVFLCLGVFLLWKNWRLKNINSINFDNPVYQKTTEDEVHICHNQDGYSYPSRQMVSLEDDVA

Kd: 0.06 µg/mL
Substance: BODIPY-labeled LDL (low density lipoprotein) (from UniProt P04114 28-4563) (ligand)
